Measured values: patent publication US20210340205A1 (Novartis, published 2021)
One block for each binder: values may come before it.

Biological target: T1, Human cRET(ECD)-Fc (human)
T1 construct: also called RET-Fc
Test: MSD plate assay, cRET(ECD)-Fc coated; biotinylated anti-6xHis mAb and streptavidin sulfo-tag
Protocol: Methods: To generate soluble GDF15/GFRAL complexes in vitro, recombinant GFRAL(D2D3)-App, GFRAL(ECD)-His, and GFRAL(ECD)-Fc proteins purified in Example 1 were freshly mixed with equimolar amounts of biotinylated His-GDF15 (1250 pM) in DPBS supplemented with 50 μM CaCl₂. The mixtures were incubated at room temperature for 60 min to allow complex formation. The complex made was stable at 4° C. and was used directly for in vitro binding assays against cRET(ECD)-Fc coated on plastic plates without further purification. Three different GDF15/GFRAL ECD complexes were prepared, including His-GDF15(biotin)/GFRAL(D2D3)-App, His-GDF15(biotin)/GFRAL (ECD)-His, and His-GDF15(biotin)/GFRAL (ECD)-Fc in the same manner. […] His-GDF15(L294R) was mixed with GFRAL(ECD)-His to generate a negative control for GDF15/GFRAL/cRET interaction. […]
Methods: Mixtures of purified biotinylated His-GDF15 and GFRAL(ECD)-His or His-GDF15(L294R) and GFRAL(ECD)-His were prepared as described in Example 3. […] Binding of proteins to plates coated with cRET(ECD)-Fc was detected using biotinylated mouse anti-6×His tag monoclonal antibody followed by streptavidin sulfo-tag, and otherwise by methods described in Example 3.

T1 sequence (chain, as listed by the source): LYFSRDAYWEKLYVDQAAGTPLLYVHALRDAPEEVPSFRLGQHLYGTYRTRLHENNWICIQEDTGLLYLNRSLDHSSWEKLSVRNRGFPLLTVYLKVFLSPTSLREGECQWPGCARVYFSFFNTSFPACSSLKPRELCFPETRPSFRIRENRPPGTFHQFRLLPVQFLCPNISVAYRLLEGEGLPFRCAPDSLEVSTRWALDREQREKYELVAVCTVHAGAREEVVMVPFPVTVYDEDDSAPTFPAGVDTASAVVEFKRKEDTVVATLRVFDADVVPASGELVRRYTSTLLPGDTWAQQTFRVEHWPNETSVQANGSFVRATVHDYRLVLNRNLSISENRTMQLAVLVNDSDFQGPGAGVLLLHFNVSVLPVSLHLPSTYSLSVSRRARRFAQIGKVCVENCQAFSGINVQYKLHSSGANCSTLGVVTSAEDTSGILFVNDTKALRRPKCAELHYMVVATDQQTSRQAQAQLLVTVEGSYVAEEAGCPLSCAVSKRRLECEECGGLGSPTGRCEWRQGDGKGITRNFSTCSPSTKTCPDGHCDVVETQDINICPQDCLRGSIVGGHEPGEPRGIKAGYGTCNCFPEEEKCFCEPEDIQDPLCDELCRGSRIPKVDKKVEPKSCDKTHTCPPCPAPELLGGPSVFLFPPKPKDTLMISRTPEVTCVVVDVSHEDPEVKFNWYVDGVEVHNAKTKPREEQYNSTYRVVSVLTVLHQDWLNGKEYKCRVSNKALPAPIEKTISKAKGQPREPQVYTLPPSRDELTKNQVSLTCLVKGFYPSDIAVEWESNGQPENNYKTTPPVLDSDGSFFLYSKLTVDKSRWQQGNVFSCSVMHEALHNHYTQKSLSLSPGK

binding result: no binding (tested: 0-5 log 10 pM)
B1: His-GDF15(L294R)/GFRAL(ECD)-His mixture (other)
chain 1: HHHHHHGSGGARNGDHCPLGPGRCCRLHTVRASLEDLGWADWVLSPREVQVTMCIGACPSQFRAANMHAQIKTSLHRLKPDTVPAPCCVPASYNPMVLIQKTDTGVSRQTYDDLLAKDCHCI
chain 2: QTNNCTYLREQCLRDANGCKHAWRVMEDACNDSDPGDPCKMRNSSYCNLSIQYLVESNFQFKECLCTDDFYCTVNKLLGKKCINKSDNVKEDKFKWNLTTRSHHGFKGMWSCLEVAEACVGDVVCNAQLASYLKACSANGNPCDLKQCQAAIRFFYQNIPFNIAQMLAFCDCAQSDIPCQQSKEALHSKTCAVNMVPPPTCLSVIRSCQNDELCRRHYRTFQSKCWQRVTRKCHEDENCISTLSKQDLTCSGSDDCKAAYIDILGTVLQVQCTCRTITQSEESLCKIFQHMLHRKSCFNYPTLSNVKGMALYTRKHANKITLTGFHSPFNGEGSHHHHHH

binding result: no binding (tested: 0-5 log 10 pM)
B2: His-GDF15(L294R) (ligand)
chain: B1 chain 1
notes: Non-functional mutant, prepared in the same way as wild-type His-GDF15 (E. coli, see US 2017/204149); also called His-GDF15(L294R) mutant
